T1: wt Dpo4 (DNA polymerase IV) (Sulfolobus solfataricus, UniProt Q97W02 1-352)
T1 sequence: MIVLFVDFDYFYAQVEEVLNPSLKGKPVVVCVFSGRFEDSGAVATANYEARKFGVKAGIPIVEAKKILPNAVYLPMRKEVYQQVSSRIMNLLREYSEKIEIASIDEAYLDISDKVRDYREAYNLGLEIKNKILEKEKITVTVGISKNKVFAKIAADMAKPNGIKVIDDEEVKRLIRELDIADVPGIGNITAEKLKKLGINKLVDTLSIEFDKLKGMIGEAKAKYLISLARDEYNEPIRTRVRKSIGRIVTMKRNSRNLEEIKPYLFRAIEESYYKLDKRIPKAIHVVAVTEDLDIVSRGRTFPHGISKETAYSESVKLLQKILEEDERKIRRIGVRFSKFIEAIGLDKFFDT


Tests used:
[1] = target: T1, wt Dpo4 (DNA polymerase IV); experiment: stopped-flow fluorescence anisotropy
[2] = target: T1, wt Dpo4 (DNA polymerase IV); experiment: stopped-flow FRET

Binder | binding result [1] | binding result [2]
Alexa488-labeled DNAOH (dsDNA, 5-C6-amino-2'-deoxythymidine at T13 of primer (ninth base from 3' end)) DNA 1: CGAGCCGTCGCATCCTACCGC DNA 2: GATGCTGCAGCGGTAGGATGCGACGGCTCG | binds | 
DNAOH (21-mer/30-mer) (dsDNA) DNA 1: CGAGCCGTCGCATCCTACCGC DNA 2: GATGCTGCAGCGGTAGGATGCGACGGCTCG |  | binds

Source: PMC8225418
